Test results published in patent US20030143669.

Legend:
[1] = test system: CHO-expressed epitope-tagged, soluble human phosphodiester α-GlcNAcase
[2] = test system: Insect-expressed epitope-tagged human phosphodiester α-GlcNAcase lacking the pro-sequence

Furin
UCE activity, % increase relative to the minus Furin samples [1]: up to 130% increase in activity | Western blot of cleavage (pro-UCE to mature UCE) [1]: the CHO-derived UCE is sensitive to furin cleavage as shown by the progressive conversion of the pro-UCE to the mature form | Western blot of cleavage; UCE activity [2]: the insect-derived UCE is not cleaved by furin as shown by the single UCE form
